# Data as given in US8840891 (RSR, dated 2014).
# Where two headings read alike, the source gives them in different places.
# Key:
# Experiment in all cases: cell-based or functional assay
# [1] = biological target: wild type human TSHR (human) (UniProt P16473)
# [2] = biological target: TSHR with Arg80 mutated to Alanine (human) (UniProt P16473)
# [3] = biological target: wild type human TSHR (human) (UniProt P16473); remark: listed apart in the source
# [4] = biological target: TSHR with Arg80 mutated to Aspartic acid (human) (UniProt P16473)
# [5] = biological target: wild type human TSHR (human) (UniProt P16473); remark: listed apart in the source
# [6] = biological target: TSHR with Ser281 mutated to Alanine (human) (UniProt P16473)
# [7] = biological target: wild type human TSHR (human) (UniProt P16473); remark: listed apart in the source
# [8] = biological target: TSHR with Arg255 mutated to Alanine (human) (UniProt P16473)
# Chain of 5C9 IgG (antibody) (VH): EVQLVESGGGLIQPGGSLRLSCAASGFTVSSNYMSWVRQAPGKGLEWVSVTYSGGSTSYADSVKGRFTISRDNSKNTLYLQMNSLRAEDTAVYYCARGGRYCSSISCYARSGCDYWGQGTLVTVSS
# Chain of 5C9 IgG (antibody) (VL): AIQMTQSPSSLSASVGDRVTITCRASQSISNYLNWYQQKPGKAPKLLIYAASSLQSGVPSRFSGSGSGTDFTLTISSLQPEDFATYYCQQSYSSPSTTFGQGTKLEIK
substance,measurement,setting,value
5C9 IgG (antibody),cyclic AMP; 5C9 0.01 µg/mL + TSH (fmol/cell well),[1],14400
same,cyclic AMP; 5C9 0.1 µg/mL + TSH (fmol/cell well),[1],11300
same,cyclic AMP; 5C9 1.0 µg/mL + TSH (fmol/cell well),[1],6700
same,cyclic AMP; 5C9 10 µg/mL + TSH (fmol/cell well),[1],2110
same,cyclic AMP; 5C9 100 µg/mL + TSH (fmol/cell well),[1],2230
same,cyclic AMP; 5C9 100 µg/mL only (fmol/cell well),[1],244
same,Mutated/wild type (%); 5C9 0.01 µg/mL + TSH,[2],99%
same,Mutated/wild type (%); 5C9 0.1 µg/mL + TSH,[2],82%
same,Mutated/wild type (%); 5C9 1.0 µg/mL + TSH,[2],20%
same,Mutated/wild type (%); 5C9 10 µg/mL + TSH,[2],55%
same,Mutated/wild type (%); 5C9 100 µg/mL + TSH,[2],23%
same,Mutated/wild type (%); 5C9 100 µg/mL only,[2],202%
same,cyclic AMP; 5C9 0.01 µg/mL + TSH (fmol/cell well),[2],14300
same,cyclic AMP; 5C9 0.1 µg/mL + TSH (fmol/cell well),[2],9280
same,cyclic AMP; 5C9 1.0 µg/mL + TSH (fmol/cell well),[2],1360
same,cyclic AMP; 5C9 10 µg/mL + TSH (fmol/cell well),[2],1160
same,cyclic AMP; 5C9 100 µg/mL + TSH (fmol/cell well),[2],518
same,cyclic AMP; 5C9 100 µg/mL only (fmol/cell well),[2],494
same,cyclic AMP; 5C9 0.01 µg/mL + TSH (fmol/cell well),[3],13100
same,cyclic AMP; 5C9 0.1 µg/mL + TSH (fmol/cell well),[3],6330
same,cyclic AMP; 5C9 1.0 µg/mL + TSH (fmol/cell well),[3],2640
same,cyclic AMP; 5C9 10 µg/mL + TSH (fmol/cell well),[3],1910
same,cyclic AMP; 5C9 100 µg/mL + TSH (fmol/cell well),[3],1610
same,cyclic AMP; 5C9 100 µg/mL only (fmol/cell well),[3],300
same,Mutated/wild type (%); 5C9 0.01 µg/mL + TSH,[4],161%
same,Mutated/wild type (%); 5C9 0.1 µg/mL + TSH,[4],70%
same,Mutated/wild type (%); 5C9 1.0 µg/mL + TSH,[4],73%
same,Mutated/wild type (%); 5C9 10 µg/mL + TSH,[4],66%
same,Mutated/wild type (%); 5C9 100 µg/mL + TSH,[4],79%
same,Mutated/wild type (%); 5C9 100 µg/mL only,[4],174%
same,cyclic AMP; 5C9 0.01 µg/mL + TSH (fmol/cell well),[4],21000
same,cyclic AMP; 5C9 0.1 µg/mL + TSH (fmol/cell well),[4],4420
same,cyclic AMP; 5C9 1.0 µg/mL + TSH (fmol/cell well),[4],1910
same,cyclic AMP; 5C9 10 µg/mL + TSH (fmol/cell well),[4],1250
same,cyclic AMP; 5C9 100 µg/mL + TSH (fmol/cell well),[4],1270
same,cyclic AMP; 5C9 100 µg/mL only (fmol/cell well),[4],523
same,cyclic AMP; 5C9 0.01 µg/mL + TSH (fmol/cell well),[5],13800
same,cyclic AMP; 5C9 0.1 µg/mL + TSH (fmol/cell well),[5],9070
same,cyclic AMP; 5C9 1.0 µg/mL + TSH (fmol/cell well),[5],3730
same,cyclic AMP; 5C9 10 µg/mL + TSH (fmol/cell well),[5],802
same,cyclic AMP; 5C9 100 µg only (fmol/cell well),[5],201
same,cyclic AMP; 5C9 100 µg/mL + TSH (fmol/cell well),[5],1080
same,Mutated/wild type (%); 5C9 0.01 µg/mL + TSH,[6],210%
same,Mutated/wild type (%); 5C9 0.1 µg/mL + TSH,[6],172%
same,Mutated/wild type (%); 5C9 1.0 µg/mL + TSH,[6],95%
same,Mutated/wild type (%); 5C9 10 µg/mL + TSH,[6],193%
same,Mutated/wild type (%); 5C9 100 µg only,[6],391%
same,Mutated/wild type (%); 5C9 100 µg/mL + TSH,[6],149%
same,cyclic AMP; 5C9 0.01 µg/mL + TSH (fmol/cell well),[6],29000
same,cyclic AMP; 5C9 0.1 µg/mL + TSH (fmol/cell well),[6],15600
same,cyclic AMP; 5C9 1.0 µg/mL + TSH (fmol/cell well),[6],3550
same,cyclic AMP; 5C9 10 µg/mL + TSH (fmol/cell well),[6],1550
same,cyclic AMP; 5C9 100 µg only (fmol/cell well),[6],785
same,cyclic AMP; 5C9 100 µg/mL + TSH (fmol/cell well),[6],1600
same,cyclic AMP; 5C9 0.01 µg/mL + TSH (fmol/cell well),[7],6620
same,cyclic AMP; 5C9 0.1 µg/mL + TSH (fmol/cell well),[7],3790
same,cyclic AMP; 5C9 1.0 µg/mL + TSH (fmol/cell well),[7],966
same,cyclic AMP; 5C9 10 µg/mL + TSH (fmol/cell well),[7],867
same,cyclic AMP; 5C9 100 µg/mL + TSH (fmol/cell well),[7],1010
same,cyclic AMP; 5C9 100 µg/mL only (fmol/cell well),[7],32
same,Mutated/wild type (%); 5C9 0.01 µg/mL + TSH,[8],123%
same,Mutated/wild type (%); 5C9 0.1 µg/mL + TSH,[8],109%
same,Mutated/wild type (%); 5C9 1.0 µg/mL + TSH,[8],201%
same,Mutated/wild type (%); 5C9 10 µg/mL + TSH,[8],80%
same,Mutated/wild type (%); 5C9 100 µg/mL + TSH,[8],80%
same,Mutated/wild type (%); 5C9 100 µg/mL only,[8],775%
same,cyclic AMP; 5C9 0.01 µg/mL + TSH (fmol/cell well),[8],8120
same,cyclic AMP; 5C9 0.1 µg/mL + TSH (fmol/cell well),[8],4140
same,cyclic AMP; 5C9 1.0 µg/mL + TSH (fmol/cell well),[8],1940
same,cyclic AMP; 5C9 10 µg/mL + TSH (fmol/cell well),[8],692
same,cyclic AMP; 5C9 100 µg/mL + TSH (fmol/cell well),[8],809
same,cyclic AMP; 5C9 100 µg/mL only (fmol/cell well),[8],248
